We go through five substances from PMC11210195.

One may read the koff as a measure of how fast the partners let go of each other. What is called kon is the rate constant with which the complex forms.

Assay [1] addresses TRIM21 PRYSPRY domain (human) (UniProt P19474). As to the kind of experiment: SPR; Biacore T200, C1 chip, 25 °C, HBS-EP+; biotinylated PRYSPRY domain captured via monovalent streptavidin at low density (about 3 RU); (antibody) Fc constructs injected in five two-fold dilutions from 200 nM; global monophasic fit, affinity mode.
The target in assay [2] is anti-AAV2 capsid antibody A20 WT (bivalent, human IgG1 Fc WT) (human). As to the kind of experiment: SPR; Biacore T200, C1 chip, 25 °C, HBS-EP+; (antibody) Fc variants captured at low density (about 8-10 RU) via anti-human Fab-kappa nanobody or anti-PGLALA F(ab')2; TRIM21-CC-PS injected 180 s in two-fold dilutions from 100, 400, 500 or 1000 nM; global 1:1 Langmuir fit; avidity (apparent) mode for symmetrical, affinity mode for asymmetrical Fc variants. Background: Surface plasmon resonance follows binding to a sensor surface in real time, without labels.
Chain of anti-AAV2 capsid antibody A20 WT (bivalent, human IgG1 Fc WT) (human) (heavy, as listed by the source, chain 1 of 2): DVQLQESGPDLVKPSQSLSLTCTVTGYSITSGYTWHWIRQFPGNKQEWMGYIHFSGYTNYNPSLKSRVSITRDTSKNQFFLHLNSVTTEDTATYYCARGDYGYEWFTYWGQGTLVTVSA
Chain of anti-AAV2 capsid antibody A20 WT (bivalent, human IgG1 Fc WT) (human) (light, as listed by the source, chain 2 of 2): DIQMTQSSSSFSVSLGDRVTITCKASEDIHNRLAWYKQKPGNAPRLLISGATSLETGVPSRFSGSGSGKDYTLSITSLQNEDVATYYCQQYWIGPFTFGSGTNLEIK

Assay [3] addresses mAb1 HH (human IgG1, T307H, N434H) (human). Described as above.
Assay [4] concerns the target mAb1 HH-AAA (asymmetrical human IgG1, one Fc heavy chain HH, the other AAA) (human). The assay is described as above.
In assay [5] the target is mAb1 WT-AAA (asymmetrical human IgG1, one Fc heavy chain H310A, H433A, Y436A) (human). The description is as above.
Assay [6] deals with mAb1 YTE (human IgG1, M252Y, S254T, T256E) (human). Described as above.
The target of assay [7] is mAb1 YTE-AAA (asymmetrical human IgG1, one Fc heavy chain YTE, the other AAA) (human). Described as above.
For assay [8], the target named is anti-AAV2 capsid antibody A20 WT (human). Put plainly: SPR; A20 antibody variants and TRIM21-CC-PS; orientation not told in the text (Supplementary Figure S8); apparent (avidity) constant.
Chain of anti-AAV2 capsid antibody A20 WT (human) (heavy, as listed by the source, chain 1 of 2): as the sequence (heavy, as listed by the source, chain 1 of 2) above
Chain of anti-AAV2 capsid antibody A20 WT (human) (light, as listed by the source, chain 2 of 2): as the sequence (light, as listed by the source, chain 2 of 2) above
In assay [9] the target is mAb1 WT-AAA (human). As to the kind of experiment: mass photometry; TRIM21-CC-PS incubated 10 min with antibody Fc variants at different molar ratios, low nM; PBS pH 7.4, room temperature.
Assay [10] deals with mAb1 HH (human). As to the kind of experiment: SPR; antibody Fc variants captured via anti-human Fab-kappa ligand at low density (approx. 8-10 RU); TRIM21-CC-PS injected, two-fold series from 100 nM, 180 s association, 600 s dissociation; 25°C, HBS-EP+; 1:1 fit; apparent (avidity) constants.
The target in assay [11] is mAb1 YTE (human). Described as above.

Chain of TRIM21 PRYSPRY domain (human) (P19474 277-475): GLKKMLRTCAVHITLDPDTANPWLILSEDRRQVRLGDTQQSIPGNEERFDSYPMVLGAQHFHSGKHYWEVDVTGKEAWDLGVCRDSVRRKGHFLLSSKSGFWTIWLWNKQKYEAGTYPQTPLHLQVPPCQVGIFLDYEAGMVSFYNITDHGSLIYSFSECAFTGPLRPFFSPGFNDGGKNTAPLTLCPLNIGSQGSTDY
Chain of TRIM21-coiled-coil-PRYSPRY (P19474 128-475): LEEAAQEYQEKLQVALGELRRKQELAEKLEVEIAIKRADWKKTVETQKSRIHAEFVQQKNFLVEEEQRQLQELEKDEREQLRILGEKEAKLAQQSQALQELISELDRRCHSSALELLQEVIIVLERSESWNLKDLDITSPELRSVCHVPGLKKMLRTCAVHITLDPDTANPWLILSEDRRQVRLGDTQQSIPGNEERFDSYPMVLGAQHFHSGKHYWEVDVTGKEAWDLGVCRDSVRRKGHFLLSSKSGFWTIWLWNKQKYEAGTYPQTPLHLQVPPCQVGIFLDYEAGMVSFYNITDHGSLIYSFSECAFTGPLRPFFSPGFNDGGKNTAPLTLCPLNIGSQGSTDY
Chain of TRIM21-coiled-coil-PRYSPRY (TRIM21-CC-PS) (P19474 128-475): as above

In the case of “Fc WT (Fc-only variant, human IgG1 core hinge-CH2-CH3, wild type) (domain or fragment)”, in assay [1], the Kd is 25.9 nM, the koff stood at 0.132 s⁻¹ and the kon stood at 5.09e+06 M⁻¹ s⁻¹.

As to “TRIM21-coiled-coil-PRYSPRY (from UniProt P19474-1 128-475) (domain or fragment)”, the koff in assay [2] was 0.000983 s⁻¹; in assay [3], 0.00651 s⁻¹; in assay [4] it was 0.437 s⁻¹; in assay [5], 0.129 s⁻¹; in assay [6], 0.00127 s⁻¹; in [7] it was 0.167 s⁻¹. Further, the kon in [2] stood at 1.44e+06 M⁻¹ s⁻¹; in [3], 4.74e+06 M⁻¹ s⁻¹; in [4], 921000 M⁻¹ s⁻¹; in assay [5], 1.1e+06 M⁻¹ s⁻¹; in assay [6] it was 865000 M⁻¹ s⁻¹; in [7], 758000 M⁻¹ s⁻¹. Also, the Kd in assay [3] worked out at 1.37 nM; in assay [4], 474 nM; in assay [5] it was 116 nM; in assay [6] it was 1.47 nM; in assay [7], 220 nM.

In assay [1], Briakinumab (antibody) returned a Kd of 16.6 nM, a koff of 0.102 s⁻¹ and an on-rate constant (kon) of 6.14e+06 M⁻¹ s⁻¹.

With “TRIM21-coiled-coil-PRYSPRY (TRIM21-CC-PS) (from UniProt P19474-1 128-475) (domain or fragment)”, the Kd in assay [8] came to 0.7 nM. The percent complexed in assay [9] amounted to 2%. Further, in [10], the avidity enhancement (K (D,AFFINITY)/K (D,AVIDITY)) came out at 72 fold, the fold faster kinetic rates against YTE came out at 5 fold and the fold weaker against the WT avidity came to 2 fold. Also, in [11], the avidity enhancement (K (D,AFFINITY)/K (D,AVIDITY)) was 50 fold and the fold weaker against the WT avidity came out at 2 fold.

Take Ustekinumab (antibody): in assay [1], the Kd amounted to 22.7 nM, the koff is 0.0884 s⁻¹ and the kon was 3.89e+06 M⁻¹ s⁻¹.
